# Reference: the supplement of paper PMC7125110
# ± gives the standard error. For part of these data: This sample holds only a part of the variants without activity.
# B1: glmS ribozyme (parent)
# chain: AUAAAAGCGCCAGAACUACAGAAAUGUAGUUGACGAGGAGGAGGUUUAUCGAAUUUUCGGCGGAUGCCUCCAAA
# Key:
# Settings in all cases: with glucosamine-6-phosphate
# [1] = variants of: B1; assay: kcat; higher = faster cleavage; RNA array
# In short: (§1)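 Tracking of barcoded ribozyme variants used a hybridised Cy3 probe at 37 °C, after in situ transcription by E. coli RNA polymerase on sequenced MiSeq chips. The flowed solution held 40 μM to 10 mM glucosamine-6-phosphate in HEPES/KCl/Mg(OAc)2 buffer, and imaging ran over ~14 h. kobs was taken from exponential decay fits of normalised per-tile medians, and kcat and KM from weighted Michaelis–Menten fits.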
# [2] = variants of: B1; assay: self-cleavage kobs at 640 uM GlcN6P; higher = faster cleavage; RNA array
# In short: as §1
# [3] = variants of: B1; assay: self-cleavage kobs at 2500 uM GlcN6P; higher = faster cleavage; RNA array
# In short: as §1
# [4] = variants of: B1; assay: self-cleavage kobs at 10000 uM GlcN6P; higher = faster cleavage; RNA array
# In short: as §1
# [5] = variants of: B1; assay: KM; higher = weaker cofactor use; RNA array
# In short: as §1
# [6] = variants of: B1; assay: self-cleavage kobs at 40 uM GlcN6P; higher = faster cleavage; RNA array
# In short: as §1
# [7] = variants of: B1; assay: self-cleavage kobs at 160 uM GlcN6P; higher = faster cleavage; RNA array
# In short: as §1
Variant,kcat [1] [s⁻¹],self-cleavage kobs at 640 uM GlcN6P [2] [s⁻¹],self-cleavage kobs at 2500 uM GlcN6P [3] [s⁻¹],self-cleavage kobs at 10000 uM GlcN6P [4] [s⁻¹],KM [5] [µM],self-cleavage kobs at 40 uM GlcN6P [6] [s⁻¹],self-cleavage kobs at 160 uM GlcN6P [7] [s⁻¹]
AUAAAAGCGCCAUAACUACAGAAAUGUAGUUGACGAGGAGGAGGUUUAUCGAAGUUUCGGCGGAUGCCUGCAAA [G13U U54G C70G],4.42e-05 ± 4.5e-06,5.17e-05 ± 2.4e-05,4.17e-05 ± 1.2e-05,4.21e-05 ± 1.5e-05,–,–,–
AUAAAAGCGCCAGCACUACAGAAAUGUAGUUGACGAGGGGGAGGUUUAUCGAAUUUUCGGCGGAUGCCUCCAAA [A14C A39G],0.0127 ± 0.0026,0.00155 ± 0.0003,0.0051 ± 0.00078,0.0095 ± 0.0016,3770 ± 970,0.000147 ± 1.6e-05,0.000352 ± 0.00017
AUAAAAGCGCCAGCACUACAGAAAUGUAGUUGACGAGGUGGAGGUUUAUCGAAUUUUCGGCGGAUGCCUCCAAA [A14C A39U],0.00308 ± 0.00063,0.000605 ± 6.5e-05,0.00174 ± 0.00021,0.00242 ± 0.00026,2440 ± 670,6.46e-05 ± 6.9e-06,0.000162 ± 1.9e-05
AUAAAAGCGCCAGCACUACAGAAAUGUAGUUGACGAGGAGGAGGUUUAUCGACUUUUCGGCGGAUGCCUCCAAA [A14C A53C],0.00124 ± 0.00016,0.000267 ± 3.4e-05,0.000659 ± 7.9e-05,0.000924 ± 0.00013,2550 ± 490,2.58e-05 ± 1.2e-05,6.39e-05 ± 1e-05
AUAAAAGCGCCAGCACUACAGAAAUGUAGUUGACGAGGAGGUGGUUUAUCGAAUUUUCGGCGGAUGCCUCCAAA [A14C A42U],3.4e-05 ± 1.6e-05,–,–,2.17e-05 ± 5.9e-06,–,–,–
AUAAAAGCGCCAUAACUACAGAAAUGUAGUUGACGAGGAGGAGGUUAAUCGAAUUUUCGGCGGAUGCCUCCAAA [G13U U47A],0.00106 ± 0.00021,0.000144 ± 1.5e-05,0.000332 ± 5e-05,0.000776 ± 8.7e-05,4310 ± 1300,2.95e-05 ± 1.5e-05,3.53e-05 ± 1.3e-05
AUAAAAGCGCCAUAACUACAGAAAUGUAGUUGACGAGGAGGAGGUUUAUCGAAUUUACGGCGGAUGCCUCCAAA [G13U U57A],2.08e-05 ± 4.9e-06,–,–,–,–,< 1e-05,–
AUAAAAGCGCCAGCACUACAGAAAUGUAGUUGACGAGGAGGAGGUUUGUCGAAUUUUCGGCGGAUGCCUCCAAA [A14C A48G],< 1e-05,< 1e-05,–,–,1040 ± 200,–,–
